Data reported in the supplement of paper PMC11246515.
± gives the standard deviation of the averaged measurements.

Test: total protein half-life in vivo (active degradation + dilution); higher = more stable protein
[1] = E. coli NCM3722 delta-clpP delta-lon delta-hslV, growth: N-lim chemostat, doubling time 6 h
[2] = E. coli NCM3722 delta-hslV, growth: N-lim chemostat, doubling time 6 h
[3] = E. coli NCM3722 delta-lon, growth: N-lim chemostat, doubling time 6 h
[4] = E. coli NCM3722 delta-smpB, growth: N-lim chemostat, doubling time 6 h
[5] = wild type E. coli NCM3722, growth: C-lim chemostat, doubling time 3 h
[6] = wild type E. coli NCM3722, growth: C-lim chemostat, doubling time 6 h
[7] = wild type E. coli NCM3722, growth: N-lim chemostat, doubling time 6 h
[8] = wild type E. coli NCM3722, growth: N-lim chemostat, doubling time 12 h
[9] = wild type E. coli NCM3722, growth: P-lim chemostat, doubling time 6 h
[10] = wild type E. coli NCM3722, growth: P-lim chemostat, doubling time 12 h
[11] = E. coli NCM3722 delta-clpP, growth: N-lim chemostat, doubling time 6 h
[12] = wild type E. coli NCM3722, growth: C-lim chemostat, doubling time 12 h

MIRTMLQGKLHRVKVTHADLHYEGSCAIDQDFLDAAGILENEAIDIWNVTNGKRFSTYAIAAERGSRIISVNGAAAHCASVGDIVIIASFVTMPDEEARTWRPNVAYFEGDNEMKRTAKAIPVQVA [P0A790]
total protein half-life in vivo [1]: 4.79 h | total protein half-life in vivo [2]: 1.54 ± 0.23 h | total protein half-life in vivo [3]: 6.3 h | total protein half-life in vivo [4]: 1.43 h | total protein half-life in vivo [5]: 1.68 ± 0.15 h | total protein half-life in vivo [6]: 3.1 h | total protein half-life in vivo [7]: 2.24 h | total protein half-life in vivo [8]: 2.2 h | total protein half-life in vivo [9]: 2.12 h | total protein half-life in vivo [10]: 4.54 ± 0.65 h

MNSKKLCCICVLFSLLAGCASESSIDEKKKKAQVTQSNINKNTPQQLTDKDLFGNETTLAVSEEDIQAALDGDEFRVPLNSPVILVQSGNRAPETIMQEEMRKYYTVSTFSGIPDRQKPLTCNKNKDKNENEDVASAENMNWMQALRFVAAKGHQKAIIVYQDMLQTGKYDSALKSTVWSDYKNDKLTDAISLRYLVRFTLVDVATGEWATWSPVNYEYKVLPPLPDKNEASTTDMTEQQIMQLKQKTYKAMVKDLVNRYQ
total protein half-life in vivo [4]: 2.44 h

MTLEWWFAYLLTSIILSLSPGSGAINTMTTSLNHGYRGAVASIAGLQTGLAIHIVLVGVGLGTLFSRSVIAFEVLKWAGAAYLIWLGIQQWRAAGAIDLKSLASTQSRRHLFQRAVFVNLTNPKSIVFLAALFPQFIMPQQPQLMQYIVLGVTTIVVDIIVMIGYATLAQRIALWIKGPKQMKALNKIFGSLFMLVGALLASARHA [P0AG34]
total protein half-life in vivo [11]: 2.02 h | total protein half-life in vivo [2]: 1.51 h | total protein half-life in vivo [4]: 1.73 ± 0.21 h | total protein half-life in vivo [5]: 0.913 h | total protein half-life in vivo [6]: 1.47 h | total protein half-life in vivo [12]: 2.28 h | total protein half-life in vivo [7]: 2.62 h | total protein half-life in vivo [10]: 3.7 h

P0ADE2
total protein half-life in vivo [1]: 1.56 h | total protein half-life in vivo [6]: 0.174 h | total protein half-life in vivo [9]: 0.104 h | total protein half-life in vivo [10]: 0.888 ± 0.58 h

MKTLATIGDNCVDIYPQLNKAFSGGNAVNVAVYCTRYGIQPGCITWVGDDDYGTKLKQDLARMGVDISHVHTKHGVTAQTQVELHDNDRVFGDYTEGVMADFALSEEDYAWLAQYDIVHAAIWGHAEDAFPQLHAAGKLTAFDFSDKWDSPLWQTLVPHLDFAFASAPQEDETLRLKMKAIVARGAGTVIVTLGENGSIAWDGAQFWRQAPEPVTVIDTMGAGDSFIAGFLCGWSAGMTLPQAIAQGTACAAKTIQYHGAW
total protein half-life in vivo [1]: 5.37 h | total protein half-life in vivo [11]: 3.97 h | total protein half-life in vivo [2]: 4.2 ± 0.26 h | total protein half-life in vivo [3]: > 8 h | total protein half-life in vivo [4]: 3.48 h | total protein half-life in vivo [5]: 1.68 h | total protein half-life in vivo [6]: 3.27 h | total protein half-life in vivo [12]: 7.21 ± 0.47 h

MFGYRSNVPKVRLTTDRLVVRLVHDRDAWRLADYYAENRHFLKPWEPVRDESHCYPSGWQARLGMINEFHKQGSAFYFGLFDPDEKEIIGVANFSNVVRGSFHACYLGYSIGQKWQGKGLMFEALTAAIRYMQRTQHIHRIMANYMPHNKRSGDLLARLGFEKEGYAKDYLLIDGQWRDHVLTALTTPDWTPGR [P0A948]
total protein half-life in vivo [1]: 4.56 ± 0.93 h | total protein half-life in vivo [11]: 3.52 ± 0.15 h | total protein half-life in vivo [2]: 3.89 ± 0.49 h | total protein half-life in vivo [3]: 4.189 ± 0.017 h | total protein half-life in vivo [4]: 4.098 ± 0.021 h | total protein half-life in vivo [5]: 3.07 ± 0.059 h | total protein half-life in vivo [6]: 5.02 ± 0.078 h | total protein half-life in vivo [12]: 8.98 ± 0.43 h | total protein half-life in vivo [7]: 3.57 ± 0.065 h | total protein half-life in vivo [8]: 5.92 ± 0.15 h | total protein half-life in vivo [9]: 5.38 ± 0.41 h

MSLKEKTQSLFANAFGYPATHTIQAPGRVNLIGEHTDYNDGFVLPCAIDYQTVISCAPRDDRKVRVMAADYENQLDEFSLDAPIVAHENYQWANYVRGVVKHLQLRNNSFGGVDMVISGNVPQGAGLSSSASLEVAVGTVLQQLYHLPLDGAQIALNGQEAENQFVGCNCGIMDQLISALGKKDHALLIDCRSLGTKAVSMPKGVAVVIINSNFKRTLVGSEYNTRREQCETGARFFQQPALRDVTIEEFNAVAHELDPIVAKRVRHILTENARTVEAASALEQGDLKRMGELMAESHASMRDDFEITVPQIDTLVEIVKAVIGDKGGVRMTGGGFGGCIVALIPEELVPAVQQAVAEQYEAKTGIKETFYVCKPSQGAGQC [P0A6T3]
total protein half-life in vivo [1]: 5.59 ± 2 h | total protein half-life in vivo [11]: 6.35 h | total protein half-life in vivo [2]: 5.09 ± 1.2 h | total protein half-life in vivo [3]: 5.29 ± 0.75 h | total protein half-life in vivo [4]: 4.573 ± 0.04 h | total protein half-life in vivo [5]: 3.22 ± 0.53 h | total protein half-life in vivo [6]: 5.71 ± 0.33 h | total protein half-life in vivo [12]: 12.7 ± 2 h | total protein half-life in vivo [7]: 4.53 ± 0.13 h | total protein half-life in vivo [8]: 7.14 ± 0.81 h | total protein half-life in vivo [9]: 6.11 ± 0.1 h | total protein half-life in vivo [10]: 11.9 ± 0.71 h

MVQRITIAPQGPEFSRFVMGYWRLMDWNMSARQLVSFIEEHLDLGVTTVDHADIYGGYQCEAAFGEALKLAPHLRERMEIVSKCGIATTAREENVIGHYITDRDHIIKSAEQSLINLATDHLDLLLIHRPDPLMDADEVADAFKHLHQSGKVRHFGVSNFTPAQFALLQSRLPFTLATNQVEISPVHQPLLLDGTLDQLQQLRVRPMAWSCLGGGRLFNDDYFQPLRDELAVVAEELNAGSIEQVVYAWVLRLPSQPLPIIGSGKIERVRAAVEAETLKMTRQQWFRIRKAALGYDVP
total protein half-life in vivo [1]: 5.21 ± 0.14 h | total protein half-life in vivo [11]: 5.59 ± 0.96 h | total protein half-life in vivo [2]: 4.95 ± 0.13 h | total protein half-life in vivo [3]: 5.07 ± 0.77 h | total protein half-life in vivo [4]: 4.67 ± 0.12 h | total protein half-life in vivo [5]: 2.86 ± 0.26 h | total protein half-life in vivo [6]: 5.71 ± 0.085 h | total protein half-life in vivo [12]: 9.47 ± 0.64 h | total protein half-life in vivo [7]: 5 ± 0.25 h | total protein half-life in vivo [8]: 8.62 ± 0.69 h | total protein half-life in vivo [9]: 5.79 ± 0.17 h | total protein half-life in vivo [10]: 10.9 ± 0.49 h
